These results are taken from IntAct's records for PubMed 21151871.

The labels stand for the following.
B1: Guanylate-binding protein 1 (Homo sapiens), P32455 (parent)
chain: MASEIHMTGPMCLIENTNGRLMANPEALKILSAITQPMVVVAIVGLYRTGKSYLMNKLAGKKKGFSLGSTVQSHTKGIWMWCVPHPKKPGHILVLLDTEGLGDVEKGDNQNDSWIFALAVLLSSTFVYNSIGTINQQAMDQLYYVTELTHRIRSKSSPDENENEVEDSADFVSFFPDFVWTLRDFSLDLEADGQPLTPDEYLTYSLKLKKGTSQKDETFNLPRLCIRKFFPKKKCFVFDRPVHRRKLAQLEKLQDEELDPEFVQQVADFCSYIFSNSKTKTLSGGIQVNGPRLESLVLTYVNAISSGDLPCMENAVLALAQIENSAAVQKAIAHYEQQMGQKVQLPTETLQELLDLHRDSEREAIEVFIRSSFKDVDHLFQKELAAQLEKKRDDFCKQNQEASSDRCSALLQVIFSPLEEEVKAGIYSKPGGYRLFVQKLQDLKKKYYEEPRKGIQAEEILQTYLKSKESMTDAILQTDQTLTEKEKEIEVERVKAESAQASAKMLQEMQRKNEQMMEQKERSYQEHLKQLTEKMENDRVQLLKEQERTLALKLQEQEQLLKEGFQKESRIMKNEIQDLQTKMRRRKACTIS
partner: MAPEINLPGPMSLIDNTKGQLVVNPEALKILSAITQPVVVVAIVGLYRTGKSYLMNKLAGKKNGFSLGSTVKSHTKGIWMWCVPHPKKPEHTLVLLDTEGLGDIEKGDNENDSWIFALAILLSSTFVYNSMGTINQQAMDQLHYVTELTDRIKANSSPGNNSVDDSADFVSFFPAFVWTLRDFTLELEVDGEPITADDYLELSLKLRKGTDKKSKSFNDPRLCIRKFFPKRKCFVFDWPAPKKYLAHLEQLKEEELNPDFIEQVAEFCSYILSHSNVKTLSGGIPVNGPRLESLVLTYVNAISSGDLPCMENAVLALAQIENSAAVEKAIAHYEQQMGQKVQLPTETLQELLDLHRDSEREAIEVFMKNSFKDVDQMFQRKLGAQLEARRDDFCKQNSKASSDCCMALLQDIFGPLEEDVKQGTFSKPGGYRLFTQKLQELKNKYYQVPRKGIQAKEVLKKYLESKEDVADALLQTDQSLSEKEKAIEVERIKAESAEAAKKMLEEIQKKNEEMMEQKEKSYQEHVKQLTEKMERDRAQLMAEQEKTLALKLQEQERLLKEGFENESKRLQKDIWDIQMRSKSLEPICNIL
B2: Guanylate-binding protein 1 (Homo sapiens), P32455 (parent)
chain: B1 chain
partner: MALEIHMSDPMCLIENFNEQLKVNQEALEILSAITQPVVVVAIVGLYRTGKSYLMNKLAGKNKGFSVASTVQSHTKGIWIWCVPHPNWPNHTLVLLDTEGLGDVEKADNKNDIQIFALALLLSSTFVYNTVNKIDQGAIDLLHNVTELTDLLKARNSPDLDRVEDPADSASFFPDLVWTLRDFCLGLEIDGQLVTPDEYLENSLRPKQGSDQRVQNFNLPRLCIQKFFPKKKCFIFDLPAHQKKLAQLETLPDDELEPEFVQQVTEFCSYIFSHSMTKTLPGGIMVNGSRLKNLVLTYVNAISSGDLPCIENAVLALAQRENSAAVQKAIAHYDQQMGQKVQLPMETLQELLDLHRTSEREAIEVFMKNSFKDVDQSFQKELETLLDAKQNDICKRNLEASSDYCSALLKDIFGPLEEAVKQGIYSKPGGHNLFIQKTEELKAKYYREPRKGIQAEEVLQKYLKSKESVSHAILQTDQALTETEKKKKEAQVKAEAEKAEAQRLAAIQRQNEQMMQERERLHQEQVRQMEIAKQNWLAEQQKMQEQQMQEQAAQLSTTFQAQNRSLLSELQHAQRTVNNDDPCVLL

One assay covers variants of B1. As to conditions: with gbp2_human GBP2, P32456.
Consider K51A, for which the “effect of a mutation on the interaction” value was “disrupting interaction strength”.

A further assay covers variants of B2. Conditions: with gbp5_human GBP5, Q96PP8.
In the case of K51A, the “effect of a mutation on the interaction” value is on record as “disrupting interaction strength”.
